Data as given in patent US20170137818, “APTAMER INHIBITING BIOLOGICAL ACTIVITY OF AUTOTAXIN BY BINDING WITH AUTOTAXIN, AND USE THEREOF” (RIBOMIC INC., published 2017).

Target: autotaxin (ENPP2/NPP2) (Homo sapiens, UniProt Q13822 Q13822:36-863)
Test: inhibition; LPA production, 0.10 uM aptamer, ~92% serum, 37C 3 h

In the case of CCTGGACGGAACCAGAATACTTTTGGTCTCCAGG (ssDNA, 2'-OMe C7,G9,A14,G15,A19,C20,A32,G33,G34; P-methyl T29; idT 5' and 3') [12(96)], the activity is reported as 76 % inhibition.

CCTGGACGGAACCAGAATACTTTTGGTCTCCAGG (ssDNA, 2'-OMe C7,G9,A14,G15,A19,C20,A32,G33,G34; PS after G15; idT 5' and 3') [12(98)] was tested, and the activity was 76 % inhibition.

In the case of CCTGGACGGAACCAGAATACTTTTGGTCTCCAGG (ssDNA, 2'-OMe C7,G9,A14,G15,A19,C20,A32,G33,G34; PS after A16; idT 5' and 3') [12(99)], the activity is reported as 81 % inhibition.

In the case of CCTGGACGGAACCAGAATACTTTTGGTCTCCAGG (ssDNA, 2'-OMe C7,G9,A14,G15,A19,C20,A32,G33,G34; PS after A17; idT 5' and 3') [12(100)], the activity is reported as 80 % inhibition.

Work on CCTGGACGGAACCAGAATACTTTTGGTCTCCAGG (ssDNA, 2'-OMe C7,G9,A14,G15,A19,C20,A32,G33,G34; PS after T18; idT 5' and 3') [12(101)] yielded an activity of 81 % inhibition.

For CCTGGACGGAACCAGAATACTTTTGGTCTCCAGG (ssDNA, 2'-OMe C7,G9,A14,G15,A19,C20,A32,G33,G34; PS after C20; idT 5' and 3') [12(102)], the activity was 72 % inhibition.

CCTGGACGGAACCAGAATACTTTTGGTCTCCAGG (ssDNA, 2'-OMe C7,G9,A14,G15,A19,C20,A32,G33,G34; PS after T21; idT 5' and 3') [12(103)] was tested, and the activity was 88 % inhibition.

With CCTGGACGGAACCAGAATACTTTTGGTCTCCAGG (ssDNA, 2'-OMe C7,G9,A14,G15,A19,C20,A32,G33,G34; PS after T22; idT 5' and 3') [12(104)] the activity was 74 % inhibition.

CCTGGACGGAACCAGAATACTTTTGGTCTCCAGG (ssDNA, 2'-OMe C7,G9,A14,G15,A19,C20,A32,G33,G34; PS after C7; idT 5' and 3') [12(106)] showed an activity of 68 % inhibition.

CCTGGACGGAACCAGAATACTTTTGGTCTCCAGG (ssDNA, 2'-OMe C7,G9,A14,G15,A19,C20,A32,G33,G34; PS after C1; idT 5' and 3') [12(107)] gave an activity of 75 % inhibition.

Binder CCTGGACGGAACCAGAATACTTTTGGTCTCCAGG (ssDNA, 2'-OMe C7,G9,A14,G15,A19,C20,A32,G33,G34; PS after C2; idT 5' and 3') [12(108)] has an activity of 68 % inhibition.

With CCTGGACGGAACCAGAATACTTTTGGTCTCCAGG (ssDNA, 2'-OMe C7,G9,A14,G15,A19,C20,A32,G33,G34; PS after T3; idT 5' and 3') [12(109)] the activity was 68 % inhibition.

In the case of CCTGGACGGAACCAGAATACTTTTGGTCTCCAGG (ssDNA, 2'-OMe C7,G9,A14,G15,A19,C20,A32,G33,G34; PS after G4; idT 5' and 3') [12(110)], the activity is reported as 63 % inhibition.

CCTGGACGGAACCAGAATACTTTTGGTCTCCAGG (ssDNA, 2'-OMe C7,G9,A14,G15,A19,C20,A32,G33,G34; PS after G5; idT 5' and 3') [12(111)] was tested, and the activity was 60 % inhibition.

CCTGGACGGAACCAGAATACTTTTGGTCTCCAGG (ssDNA, 2'-OMe C7,G9,A14,G15,A19,C20,A32,G33,G34; PS after T29; idT 5' and 3') [12(112)] was tested, and the activity was 69 % inhibition.

With CCTGGACGGAACCAGAATACTTTTGGTCTCCAGG (ssDNA, 2'-OMe C7,G9,A14,G15,A19,C20,A32,G33,G34; PS after C30; idT 5' and 3') [12(113)] the activity was 66 % inhibition.

Work on CCTGGACGGAACCAGAATACTTTTGGTCTCCAGG (ssDNA, 2'-OMe C7,G9,A14,G15,A19,C20,A32,G33,G34; PS after C31; idT 5' and 3') [12(114)] yielded an activity of 75 % inhibition.

CCTGGACGGAACCAGAATACTTTTGGTCTCCAGG (ssDNA, 2'-OMe C7,G9,A14,G15,A19,C20,A32,G33,G34; PS after A32; idT 5' and 3') [12(115)] was tested, and the activity was 77 % inhibition.

Binder CCTGGACGGAACCAGAATACTTTTGGTCTCCAGG (ssDNA, 2'-OMe C7,G9,A14,G15,A19,C20,A32,G33,G34; PS after G33; idT 5' and 3') [12(116)] has an activity of 72 % inhibition.

B1: 12(117) (ssDNA)
DNA: CCTGGACGGAACCAGAATACTTTTGGTCTCCAGG
modifications: 2'-OMe C7,G9,A14,G15,A19,C20,A32,G33,G34; PS after G8; 5' 40 kDa PEG (GL2-400GS2) via ssH linker; 3' idT
B1 showed an activity of 90 % inhibition.

CCTGGACGGAACCAGAATACTTTTGGTCTCCAGG (ssDNA, 2'-OMe C7,G9,A14,G15,A19,C20,A32,G33,G34; P-methyl T24; idT 5' and 3') [12(120)] showed an activity of 67 % inhibition.

Binder CCTGGACGGAACCAGAATACTTTTGGTCTCCAGG (ssDNA, 2'-OMe C7,G9,A14,G15,A19,C20,A32,G33,G34; P-methyl T23; idT 5' and 3') [12(121)] has an activity of 80 % inhibition.

CCTGGACGGAACCAGAATACTTTTGGTCTCCAGG (ssDNA, 2'-OMe C7,G9,A14,G15,A19,C20,A32,G33,G34; P-methyl T22; idT 5' and 3') [12(122)] was tested, and the activity was 65 % inhibition.

Binder CCTGGACGGAACCAGAATACTTTTGGTCTCCAGG (ssDNA, 2'-OMe C7,G9,A14,G15,A19,C20,A32,G33,G34; P-methyl T21; idT 5' and 3') [12(123)] has an activity of 74 % inhibition.

Binder CCTGGACGGAACCAGAATACTTTTGGTCTCCAGG (ssDNA, 2'-OMe C7,G9,A14,G15,A19,C20,A32,G33,G34; P-methyl A16; idT 5' and 3') [12(124)] has an activity of 76 % inhibition.

With CCTGGACGGAACCAGAATACTTTTGGTCTCCAGG (ssDNA, 2'-OMe C7,G9,A14,G15,A19,C20,A32,G33,G34; P-methyl A17; idT 5' and 3') [12(125)] the activity was 78 % inhibition.

In the case of CCTGGACGGAACCAGAATACTTTTGGTCTCCAGG (ssDNA, 2'-OMe C7,G9,A14,G15,A19,C20,A32,G33,G34; P-methyl C31; idT 5' and 3') [12(126)], the activity is reported as 77 % inhibition.

With CCTGGACGGAACCAGAATACTTTTGGTCTCCAGG (ssDNA, 2'-OMe C7,G9,A14,G15,A19,C20,A32,G33,G34; P-methyl C30; idT 5' and 3') [12(127)] the activity was 79 % inhibition.

For CCTGGACGGAACCAGAATACTTTTGGTCTCCAGG (ssDNA, 2'-OMe C7,G9,A14,G15,A19,C20,A32,G33,G34; P-methyl G5; idT 5' and 3') [12(128)], the activity was 78 % inhibition.

CCTGGACGGAACCAGAATACTTTTGGTCTCCAGG (ssDNA, 2'-OMe C7,G9,A14,G15,A19,C20,A32,G33,G34; P-methyl T3; idT 5' and 3') [12(129)] showed an activity of 73 % inhibition.

CCTGGACGGAACCAGAATACTTTTGGTCTCCAGG (ssDNA, 2'-OMe C7,G9,A14,G15,A19,C20,A32,G33,G34; P-methyl C1; idT 5' and 3') [12(130)] gave an activity of 77 % inhibition.
